In the supplement of paper PMC9233669:
Fewer inactive variants are shown than the library holds.

Experiments:
biotinyl-Met-oxazolone = assay: self-aminoacylation, catalytic enhancement (BMO) (fold over background); higher = more active; k-Seq, kA / k0A0; sequences stand for … in GGGAAUGGAUCCACAUCUACGAAUUC…UUCACUGCAGACUUGACGAAGCUG
Method in brief: (§1)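 Mutagenized RNA pools with a 21-nt variable region (0.43 μM) were reacted with each biotinyl-aminoacyl-oxazolone at 2–1250 μM for 90 minutes at room temperature, in 50 μL HEPES/NaCl/KCl/MgCl2/CaCl2 buffer containing 5% acetonitrile at pH 6.9–7.0. RNA captured on streptavidin was quantified by triplicate qPCR and by Illumina sequencing. The fraction reacted for each sequence was fit to a pseudo-first-order model with bootstrapping, and catalytic enhancement is the median kA divided by the uncatalyzed rate, taken as the low-activity peak of a bimodal Gaussian fit.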

biotinyl-Trp-oxazolone = assay: self-aminoacylation, catalytic enhancement (BWO) (fold over background); higher = more active; k-Seq, kA / k0A0; sequences stand for … in GGGAAUGGAUCCACAUCUACGAAUUC…UUCACUGCAGACUUGACGAAGCUG
Method in brief: as §1

biotinyl-Ile-oxazolone = assay: self-aminoacylation, catalytic enhancement (BIO) (fold over background); higher = more active; k-Seq, kA / k0A0; sequences stand for … in GGGAAUGGAUCCACAUCUACGAAUUC…UUCACUGCAGACUUGACGAAGCUG
Method in brief: as §1

biotinyl-Val-oxazolone = assay: self-aminoacylation, catalytic enhancement (BVO) (fold over background); higher = more active; k-Seq, kA / k0A0; sequences stand for … in GGGAAUGGAUCCACAUCUACGAAUUC…UUCACUGCAGACUUGACGAAGCUG
Method in brief: as §1

biotinyl-Phe-oxazolone = assay: self-aminoacylation, catalytic enhancement (BFO) (fold over background); higher = more active; k-Seq, kA / k0A0; sequences stand for … in GGGAAUGGAUCCACAUCUACGAAUUC…UUCACUGCAGACUUGACGAAGCUG
Method in brief: as §1

biotinyl-Leu-oxazolone = assay: self-aminoacylation, catalytic enhancement (BLO) (fold over background); higher = more active; k-Seq, kA / k0A0; sequences stand for … in GGGAAUGGAUCCACAUCUACGAAUUC…UUCACUGCAGACUUGACGAAGCUG
Method in brief: as §1

Row | Sequence | self-aminoacylation (biotinyl-Met-oxazolone) | self-aminoacylation (biotinyl-Trp-oxazolone) | self-aminoacylation (biotinyl-Ile-oxazolone) | self-aminoacylation (biotinyl-Val-oxazolone) | self-aminoacylation (biotinyl-Phe-oxazolone) | self-aminoacylation (biotinyl-Leu-oxazolone)
1 | GUUACCCUGGUCAUCGAGGGA [Fam2.1 aminoacylation ribozyme variant] | 5.05 | 5.33 | 3.06 | 2.7 | 4.93 | 4.18
2 | GUUACCCUGGUUAUCGAGUGA [Fam2.1 aminoacylation ribozyme variant] | 11.6 | 13 | 5.48 | 5.74 | 57.6 | 11.8
3 | GUUACUCUGGUCAUCGAGUGA [Fam2.1 aminoacylation ribozyme variant] | 6.92 | 9.78 | 4.98 | 4.18 | 32.9 | 7.08
4 | GUUCACCAAGGUCAUCGGGUG [Fam2.2 aminoacylation ribozyme variant] | 6.5 | 6 | 4.16 | 4.45 | 64.7 | 8.83
5 | GUUCACCGAGGUCAUCGGGUG [Fam2.2 aminoacylation ribozyme variant] | 6.57 | 7.43 | 4.56 | 4.56 | 55.9 | 8.58
6 | GUUCACCUACGUCAUCGGGUG [Fam2.2 aminoacylation ribozyme variant] | 4.35 | 4.3 | 3.26 | 3.69 | 31 | 5.15
7 | GUUCACCUAGGUAAUCGGGUG [Fam2.2 aminoacylation ribozyme variant] | 2.74 | 3.83 | 2.38 | 2.12 | 9.25 | 2.92
8 | GUUCACCUAGGUCAGCGGGUG [Fam2.2 aminoacylation ribozyme variant] | 4.02 | 4.42 | 2.92 | 3.23 | 26.1 | 4.21
9 | GUUCACCUAGGUCAUCAGGUG [Fam2.2 aminoacylation ribozyme variant] | 1.09 | 1.06 | 1.23 | 1.35 | 2.03 | 1.32
10 | GUUCACCUAGGUCAUCGAGUG [Fam2.2 aminoacylation ribozyme variant] | 11.4 | 6.52 | 8.09 | 6.89 | 27.6 | 15.7
11 | GUUCACCUAGGUCAUCGCGUG [Fam2.2 aminoacylation ribozyme variant] | 10.5 | 10.6 | 6.72 | 6.96 | 96.1 | 15
12 | GUUCACCUAGGUCAUCGGCUG [Fam2.2 aminoacylation ribozyme variant] | 1.49 | 1.97 | 1.67 | 1.98 | 7.17 | 2.04
13 | GUUCACCUAGGUGAUCGGGUG [Fam2.2 aminoacylation ribozyme variant] | 3.88 | 4.84 | 3.88 | 3.88 | 21 | 4.25
14 | GUUCACCUAUGUCAUCGGGUG [Fam2.2 aminoacylation ribozyme variant] | 4.03 | 4.3 | 3.1 | 3.31 | 21.4 | 5.63
15 | GUUCAGCUAGGUCAUCGGGUG [Fam2.2 aminoacylation ribozyme variant] | 3.72 | 5.82 | 3.97 | 4.11 | 25 | 5.08
16 | GUUCGCCUAGGUCAUCGGGUG [Fam2.2 aminoacylation ribozyme variant] | 18.9 | 14.9 | 9.85 | 10.2 | 121 | 22.8
17 | GUUCUUCAAACAAUCGGUCUG [Fam1A.1 aminoacylation ribozyme variant] | 1 | 2.39 | 0.863 | 0.824 | 3.63 | 0.983
18 | UAGUCUGCUAAUAGUCGCAAG [Fam3.1 aminoacylation ribozyme variant] | 2.17 | 9.92 | 2.01 | 1.81 | 32.7 | 1.83
19 | UAGUUUGCUAAUAGCCGCAAG [Fam3.1 aminoacylation ribozyme variant] | 0.885 | 1.88 | 1.22 | 1.05 | 2.71 | 1.25
20 | UAGUUUGCUAAUAGUCCCAAG [Fam3.1 aminoacylation ribozyme variant] | 0.851 | 1.37 | 1.03 | 0.864 | 2.1 | 0.805
21 | UAGUUUGCUAAUAGUCGCAAA [Fam3.1 aminoacylation ribozyme variant] | 1.75 | 2.06 | 1.95 | 1.38 | 1.58 | 1.53

Row | Sequence | self-aminoacylation (biotinyl-Met-oxazolone) | self-aminoacylation (biotinyl-Trp-oxazolone) | self-aminoacylation (biotinyl-Ile-oxazolone) | self-aminoacylation (biotinyl-Val-oxazolone) | self-aminoacylation (biotinyl-Phe-oxazolone) | self-aminoacylation (biotinyl-Leu-oxazolone)
22 | UAGUUUGCUAAUAGUCGCCAG [Fam3.1 aminoacylation ribozyme variant] | 1.69 | 1.16 | 1.47 | 1.2 | 1.74 | 1.7
23 | UAGUUUGCUAAUAGUGGCAAG [Fam3.1 aminoacylation ribozyme variant] | 0.891 | 0.543 | 0.819 | 0.688 | 1.63 | 0.753
24 | UAGUUUGCUAAUAUUCGCAAG [Fam3.1 aminoacylation ribozyme variant] | 1.22 | 1.21 | 1.3 | 1.26 | 1.71 | 1.04
25 | UAGUUUGCUACUAGUCGCAAG [Fam3.1 aminoacylation ribozyme variant] | 1.24 | 1.23 | 1.42 | 1.1 | 1.57 | 1.23
26 | UAGUUUGCUUAUAGUCGCAAG [Fam3.1 aminoacylation ribozyme variant] | 1.84 | 1.81 | 1.53 | 1.54 | 2.08 | 1.59
27 | UAUUUUGCUAAUAGUCGCAAG [Fam3.1 aminoacylation ribozyme variant] | 1.65 | 1.47 | 1.75 | 1.52 | 1.99 | 1.31
28 | UCACACUCCAAGCAAUCGGUC [Fam1B.1 aminoacylation ribozyme variant] | 0.825 | 1.44 | 0.885 | 1.13 | 2.4 | 0.792
29 | UCACACUUCAAGAAAUCGGUC [Fam1B.1 aminoacylation ribozyme variant] | 0.819 | 6.06 | 0.947 | 0.888 | 7.38 | 0.906
30 | UCACACUUCAAGCAAACGGUC [Fam1B.1 aminoacylation ribozyme variant] | 0.682 | 0.586 | 0.639 | 0.792 | 0.679 | 0.506
31 | UCACACUUCAAGCAAUCGAUC [Fam1B.1 aminoacylation ribozyme variant] | 0.501 | 0.732 | 0.589 | 0.808 | 1.49 | 0.468
32 | UCACACUUCAAGCAAUCGGUA [Fam1B.1 aminoacylation ribozyme variant] | 1.1 | 1.49 | 0.993 | 1.12 | 1.13 | 1.04
33 | UCACACUUCAAGCAAUCGUUC [Fam1B.1 aminoacylation ribozyme variant] | 0.602 | 0.608 | 0.696 | 0.792 | 1.45 | 0.611
34 | UCACACUUCACGCAAUCGGUC [Fam1B.1 aminoacylation ribozyme variant] | 0.81 | 0.908 | 1.03 | 1.21 | 0.767 | 0.873
35 | UCACGCUUCAAGCAAUCGGUC [Fam1B.1 aminoacylation ribozyme variant] | 1.56 | 41.6 | 1.32 | 1.7 | 84.1 | 2.46
36 | UCCCACUUCAAGCAAUCGGUC [Fam1B.1 aminoacylation ribozyme variant] | 1.46 | 22.3 | 1.28 | 1.73 | 37 | 1.59
37 | UCUCACCUAGGUCAUCGGGUG [Fam2.2 aminoacylation ribozyme variant] | 3.73 | 3.84 | 2.33 | 3.09 | 16.1 | 3.81
38 | UCUCACUUCAAGCAAUCGGUC [Fam1B.1 aminoacylation ribozyme variant] | 1.15 | 21.5 | 1.23 | 1.35 | 44.5 | 1.71
39 | UGACACUUCAAGCAAUCGGUC [Fam1B.1 aminoacylation ribozyme variant] | 1.33 | 14.5 | 1.84 | 1.37 | 21.5 | 1.89
40 | UUACGUCAAACAAUCGGUCUG [Fam1A.1 aminoacylation ribozyme variant] | 1.99 | 2.38 | 1.98 | 1.68 | 6.37 | 1.58
41 | UUACUUCAAACAAUCGAUCUG [Fam1A.1 aminoacylation ribozyme variant] | 0.711 | 0.866 | 0.852 | 0.719 | 1.8 | 0.824
42 | UUACUUCAAACAAUCGGGCUG [Fam1A.1 aminoacylation ribozyme variant] | 1.93 | 7.54 | 1.76 | 1.66 | 8.04 | 2.22
